Experimental data reported in US20110244457A1.

Columns and labels:
[1] = molecular target: human IL-8 (human) (UniProt P10145); assay: homogeneous immuno-SDA with reversed probe RBD-3v3, 1.0 pM IL-8 in binding mixture, 20 pM Ab1-SA-P1 with 100 pM Ab2-P2 (G265-5-LHP-3), 50 nM blocker RDB-3z8
[2] = molecular target: human IL-8 (human) (UniProt P10145); assay: homogeneous immuno-SDA with reversed probe RBD-3v3, 0.25 pM IL-8 in binding mixture, 20 pM Ab1-SA-P1 with 100 pM Ab2-P2 (G265-5-LHP-3), 50 nM blocker RDB-3z8
[3] = molecular target: human IL-8 (human) (UniProt P10145); assay: homogeneous immuno-SDA with tether oligonucleotide, 10 pM IL-8 in binding mixture, 1 nM Ab1-SA-TO plus RHP-3 with 1 nM Ab2-P2 (G265-5-LHP-3)
[4] = molecular target: human IL-8 (human) (UniProt P10145); assay: homogeneous immuno-SDA with tether oligonucleotide, 100 pM IL-8 in binding mixture, 1 nM Ab1-SA-TO plus RHP-3 with 1 nM Ab2-P2 (G265-5-LHP-3)
[5] = molecular target: human IL-8 (human) (UniProt P10145); assay: homogeneous immuno-SDA with reversed probe RBD-3v3, 0.1 pM IL-8 in binding mixture, 20 pM Ab1-SA-P1 with 100 pM Ab2-P2 (G265-5-LHP-3), 50 nM blocker RDB-3z8
[6] = molecular target: human IL-8 (human) (UniProt P10145); assay: homogeneous immuno-SDA with reversed probe RBD-3v3, 0.5 pM IL-8 in binding mixture, 20 pM Ab1-SA-P1 with 100 pM Ab2-P2 (G265-5-LHP-3), 50 nM blocker RDB-3z8
[7] = molecular target: human IL-8 (human) (UniProt P10145); assay: homogeneous immuno-SDA, 100 pM IL-8 in binding mixture, 1 nM Ab1-SA-P1 with 1 nM Ab2-P2 (G265-5-LHP-3) as second proximity member
[8] = molecular target: human IL-8 (human) (UniProt P10145); assay: homogeneous immuno-SDA, 1,000 pM IL-8 in binding mixture, 1 nM Ab1-SA-P1 with 1 nM Ab2-P2 (G265-5-LHP-3) as second proximity member
[9] = molecular target: human IL-8 (human) (UniProt P10145); assay: homogeneous immuno-SDA, 10 pM IL-8 in binding mixture, 1 nM Ab1-SA-P1 with 1 nM Ab2-P2 (G265-5-LHP-3) as second proximity member; signal needs both antibodies on IL-8

Chain of human IL-8 (human) (P10145 28-99 limits assumed): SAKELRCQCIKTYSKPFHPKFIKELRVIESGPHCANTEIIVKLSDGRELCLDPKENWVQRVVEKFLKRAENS
Chain of MAb G265-8 (BD Bioscience Pharmingen), directed against human IL-8, covalently coupled to streptavidin (anti-IL-8 IgG-SA conjugate) (P22629 37-163): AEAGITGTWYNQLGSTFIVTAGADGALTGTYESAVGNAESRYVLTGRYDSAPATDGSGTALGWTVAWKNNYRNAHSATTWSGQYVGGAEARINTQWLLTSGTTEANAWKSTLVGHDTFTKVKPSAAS

Average MOTA (n = 4) [1]: 129000
Average MOTA (n = 4) [2]: 81600
Average MOTA (n = 6) [3]: 505
Average MOTA (n = 6) [4]: 32200
Average MOTA (n = 4) [5]: 23100
Average MOTA (n = 4) [6]: 118000
Average MOTA (n = 6) [7]: 73900
Average MOTA (n = 6) [8]: 129000
Average MOTA (n = 6) [9]: 3980
Substance: MAb G265-8 (BD Bioscience Pharmingen), directed against human IL-8, covalently coupled to streptavidin (anti-IL-8 IgG-SA conjugate) (from UniProt P22629 37-163) (antibody)
